Measurements from publication doi:10.64898/2025.12.08.692997 (bioRxiv, 2025).
Read-outs that look alike come from different tables or passages of the source. Blank lines part the entries; values can stand above or below the molecule they belong to.

Key:
[1] = target: Rat EphB1-Fc ectodomain (rat) (UniProt P09759); assay: AlphaScreen or HTRF
[2] = target: Rat EphB1-Fc ectodomain (rat) (UniProt P09759); assay: BLI
[3] = target: Mouse EphrinB2-His ectodomain (mouse) (UniProt P52800); assay: mass photometry
[4] = target: T1, Human EphB2-His ectodomain (human, UniProt P29323 19-543); assay: BLI
T1 sequence: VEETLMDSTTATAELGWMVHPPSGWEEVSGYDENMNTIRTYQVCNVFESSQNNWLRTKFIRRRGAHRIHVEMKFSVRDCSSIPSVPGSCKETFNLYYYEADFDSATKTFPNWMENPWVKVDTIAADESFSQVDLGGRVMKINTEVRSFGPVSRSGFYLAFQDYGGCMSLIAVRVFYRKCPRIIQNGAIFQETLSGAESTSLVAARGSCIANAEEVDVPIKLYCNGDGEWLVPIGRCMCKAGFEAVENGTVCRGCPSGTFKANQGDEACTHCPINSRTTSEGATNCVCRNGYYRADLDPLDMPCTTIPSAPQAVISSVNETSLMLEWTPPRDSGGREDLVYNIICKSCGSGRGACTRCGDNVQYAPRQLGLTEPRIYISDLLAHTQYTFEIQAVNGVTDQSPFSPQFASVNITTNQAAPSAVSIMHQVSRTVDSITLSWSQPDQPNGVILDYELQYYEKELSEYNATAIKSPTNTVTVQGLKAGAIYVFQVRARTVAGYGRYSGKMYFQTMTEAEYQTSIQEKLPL

[5] = target: T2, Human EphB1-His ectodomain (human, UniProt P54762 18-540); assay: BLI
T2 sequence: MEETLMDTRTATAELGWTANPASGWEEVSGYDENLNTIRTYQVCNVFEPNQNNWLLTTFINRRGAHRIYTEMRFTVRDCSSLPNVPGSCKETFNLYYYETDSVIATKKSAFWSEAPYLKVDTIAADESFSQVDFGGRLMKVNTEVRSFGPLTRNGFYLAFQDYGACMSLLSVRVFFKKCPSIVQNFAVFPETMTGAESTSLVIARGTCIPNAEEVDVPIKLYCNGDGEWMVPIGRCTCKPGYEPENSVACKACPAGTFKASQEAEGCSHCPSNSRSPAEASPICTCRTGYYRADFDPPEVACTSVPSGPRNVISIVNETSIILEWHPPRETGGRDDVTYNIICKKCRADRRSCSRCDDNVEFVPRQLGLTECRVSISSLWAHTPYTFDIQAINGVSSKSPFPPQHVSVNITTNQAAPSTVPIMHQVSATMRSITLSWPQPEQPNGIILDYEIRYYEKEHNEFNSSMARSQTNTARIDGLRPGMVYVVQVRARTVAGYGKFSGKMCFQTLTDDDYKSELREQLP

[6] = target: T3, Human EphB2-His ectodomain (human), P29323; assay: mass photometry; settings: remark: other sources report otherwise
T3 chain: T1 sequence

[7] = target: T1, Human EphB2-His ectodomain; assay: BLI; remark: listed apart in the source
[8] = target: T4, Human EphB4-His ectodomain (human, UniProt P54760 16-539); assay: BLI
T4 sequence: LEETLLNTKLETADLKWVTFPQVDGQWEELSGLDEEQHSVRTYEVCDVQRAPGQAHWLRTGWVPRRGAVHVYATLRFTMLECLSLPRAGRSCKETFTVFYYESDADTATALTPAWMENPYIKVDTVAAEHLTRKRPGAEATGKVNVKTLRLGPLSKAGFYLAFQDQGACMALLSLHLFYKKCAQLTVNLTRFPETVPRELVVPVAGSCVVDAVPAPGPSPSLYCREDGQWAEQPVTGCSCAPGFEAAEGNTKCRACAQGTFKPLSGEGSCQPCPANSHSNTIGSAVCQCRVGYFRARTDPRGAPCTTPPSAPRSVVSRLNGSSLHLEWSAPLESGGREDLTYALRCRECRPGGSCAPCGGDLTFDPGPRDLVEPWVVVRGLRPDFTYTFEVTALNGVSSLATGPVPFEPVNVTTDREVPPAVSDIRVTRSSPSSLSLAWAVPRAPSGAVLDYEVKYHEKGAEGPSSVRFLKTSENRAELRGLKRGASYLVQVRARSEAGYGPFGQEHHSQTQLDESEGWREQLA

Molecule: soluble Reelin protein (from UniProt Q60841 27-3461) (natural protein)
- IC50 [1]: 50 nM

B1: Human EphrinB1-Fc ectodomain (Fc fusion)
chain: LAKNLEPVSWSSLNPKFLSGKGLVIYPKIGDKLDIICPRAEAGRPYEYYKLYLVRPEQAAACSTVLDPNVLVTCNRPEQEIRFTIKFQEFSPNYMGLEFKKHHDYYITSTSNGSLEGLENREGGVCRTRTMKIIMKVGQDPNAVTPEQLTTSRPSKEADNTVKMATQAPGSRGSLGDSDGKHETVNQEEKSGPGASGGSSGDPDGFFNS
- binding result [4]: binds
- binding result [5]: binds

B4: Human EphrinB2-Fc ectodomain (Fc fusion)
chain: IVLEPIYWNSSNSKFLPGQGLVLYPQIGDKLDIICPKVDSKTVGQYEYYKVYMVDKDQADRCTIKKENTPLLNCAKPDQDIKFTIKFQEFSPNLWGLEFQKNKDYYIISTSNGSLEGLDNQEGGVCQTRAMKILMKVGQDASSAGSTRNKDPTRRPELEAGTNGRSSTTSPFVKPNPGSSTDGNSAGHSGNNILGSEVALFA
- binding result [7]: binds
- binding result [5]: binds
- binding result [8]: binds

The remaining lines, values ahead:

- KD1 (2:1 heterologous interaction model) [2]: < 1 pM
- KD2 (dimer formation, 2:1 model) [2]: 39.7 nM
- stoichiometry N [3]: 2
Molecule: Mouse EphrinB2-His ectodomain (from UniProt P52800 29-232) (domain or fragment)

- stoichiometry N [6]: 2
B2: Human EphB2-His ectodomain, P29323 19-543 (domain or fragment)
chain: T1 sequence

- binding result [4]: binds
- binding result [5]: binds
B3: Human EphrinB3-Fc ectodomain (Fc fusion)
chain: LSLEPVYWNSANKRFQAEGGYVLYPQIGDRLDLLCPRARPPGPHSSPNYEFYKLYLVGGAQGRRCEAPPAPNLLLTCDRPDLDLRFTIKFQEYSPNLWGHEFRSHHDYYIIATSDGTREGLESLQGGVCLTRGMKVLLRVGQSPRGGAVPRKPVSEMPMERDRGAAHSLEPGKENLPGDPTSNATSRGAEGPLPPPS
